These results are taken from patent US8097254.

The target in one assay is hen egg lysozyme (hen) (UniProt P00698). Put plainly: 125I-labelled (Iodogen) scFv loaded on antigen column, counting of flow-through and eluate.
Assay [1] addresses T1, recombinant ED-B domain of fibronectin (UniProt P02751 1266-1356, biotinylated (biotin disulfide N-hydroxysuccinimide ester) in ELISA and ECL competition; Cy5 at the N-terminal extremity in the band-shift analysis).
T1 construct: domain: ED-B; Recombinant fragment made as in Carnemolla et al. 1996; also called biotinylated ED-B; ED-B-biotin
Put plainly: SPR (BIAcore). For orientation: SPR reads the build-up and loss of mass on a sensor chip optically.

Assay [2] concerns the target T1, recombinant ED-B domain of fibronectin. Kind of assay: SPR (BIAcore), purified scFv.
For assay [3] the target is unchanged. Put plainly: Kd = koff/kon, koff from ECL competition, kon from BIAcore.
Assay [4] shares this target. Put plainly: competition of scFv-(ED-B-biotin) complex with excess unbiotinylated ED-B, electrochemiluminescent detection (Origen).

T1 sequence (P02751 1266-1356 limits assumed): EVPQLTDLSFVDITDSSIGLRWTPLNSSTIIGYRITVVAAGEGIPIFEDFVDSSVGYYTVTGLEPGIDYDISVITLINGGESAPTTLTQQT
Sequence of hen egg lysozyme (hen) (P00698 19-147): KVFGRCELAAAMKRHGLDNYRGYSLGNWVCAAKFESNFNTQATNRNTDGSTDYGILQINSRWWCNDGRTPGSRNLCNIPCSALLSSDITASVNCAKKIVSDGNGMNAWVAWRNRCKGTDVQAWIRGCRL

As for scFv(D1.3), the immunoreactivity in the assay with hen egg lysozyme (hen) was greater than 80%.

B1: scFv L19 (high-affinity anti-ED-B human scFv antibody fragment) (scFv)
chain: EVQLLESGGGLVQPGGSLRLSCAASGFTFSSFSMSWVRQAPGKGLEWVSSISGSSGTTYYADSVKGRFTISRDNSKNTLYLQMNSLRAEDTAVYYCAKPFPYFDYWGQGTLVTVSSGDGSSGGSGGASTGEIVLTQSPGTLSLSPGERATLSCRASQSVSSSYLAWYQQKPGQAPRLLIYYASSRATGIPDRFSGSGSGTDFTLTISRLEPEDFAVYYCQQTGRIPPTFGQGTKVEIKDDDSDDDYKDDDDKHHHHHH
modifications: in some assays labelled: iodine-125 (Iodogen, or via N-succinimidyl-3-(125I)-benzoate), astatine-211 via m-MeATE, Cy5-NHS, tin (IV) chlorin e6
B1: the koff – broadly, the rate constant with which the complex falls apart – is 9.6e-05 s⁻¹ in assay [1] and 6e-06 s⁻¹ in assay [4]. The kon (in general, a measure of how fast the partners come together) in assay [2] came to 110000 M⁻¹ s⁻¹. Besides, the Kd (in general, the equilibrium constant for the complex coming apart) in assay [3] worked out at 0.054 nM.
